Here are results for one substance from ChEMBL document CHEMBL1150442, “Synthesis and creatine kinase inhibitory activity of non-hydrolyzable analogs of phosphocreatine” (Bioorg Med Chem Lett, 1997).

The data set has as its system CN(CC(=O)O)C(=N)NP(=O)(O)O. As to the kind of experiment: Compound was tested for inhibition against Creatine kinase(CK). As to conditions: Oryctolagus cuniculus.

Chain of Creatine kinase M-type (Homo sapiens), P06732 (P06732 whole entry): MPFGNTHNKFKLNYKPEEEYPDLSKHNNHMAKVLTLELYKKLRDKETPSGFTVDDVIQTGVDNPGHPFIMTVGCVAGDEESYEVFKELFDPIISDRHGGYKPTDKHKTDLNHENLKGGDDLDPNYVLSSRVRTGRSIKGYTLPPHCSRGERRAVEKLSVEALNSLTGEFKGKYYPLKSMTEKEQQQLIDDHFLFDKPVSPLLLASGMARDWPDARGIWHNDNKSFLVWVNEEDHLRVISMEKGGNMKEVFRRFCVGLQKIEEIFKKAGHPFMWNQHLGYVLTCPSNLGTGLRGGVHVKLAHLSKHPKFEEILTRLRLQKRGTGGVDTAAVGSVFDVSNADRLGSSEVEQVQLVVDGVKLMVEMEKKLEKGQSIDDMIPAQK

Broadly, the Km is the concentration of substrate that gives half-maximal velocity. On to “Creatine kinase M-type (Homo sapiens), P06732”, for which the Michaelis constant (Km) stood at 2500 µM.
